Laboratory results published in the DeepSol protein solubility set.

Assay: soluble on expression in E. coli; label from the status in PepcDB or PDB records
With “MLSKTVFDASQERMEVIFSEFDNIIVSFSGGKDSAVMLHLMIDYIRKNNIQKKIYVYHLDYEGQYSATSDFVAEMLTSNLDIIEPLWCCLPIAAQSAVSMYTDHWIPWEKSKQDIWVREMPDYPSVINEDNAPFDFDFHTIWDYEFNKKLIHWLHTKNKAEKTIALIGIRQQESLNRYNAIHKKERMYKNYNWTTEISKNIYNAYPIHDWLVEDIWTANAKFDWPYNKIYDLFYQAGLTLNDMRVASPFNDSATESLKLYRVIEPALWSKLVGRVNGANFTAIYGGTSAMAWKEINLPPNHTWKSYLEFLLTTLPSYTRERYLKKFKTSINYWTEKGGALKVETVEELKNLNVQADFLGKPQNKRTYSNPMEIVRFKEYPDDLKIKEFASVPTYKRMCIAILKNDYTCKYMGFGQTKLELEKRKHALEKYNNIL” the “soluble on expression in E. coli” value was “not soluble”. For “MLSLTAHLVLISTIIVKCSAFSKKPSERAKPAAVKKAVEDKQPVKVTAFEQASLNEDKAEAMSNIEPSPKISNSTVPTAPTPKKEKKVVATTKKTERSVAQGPPLVSEHIKDEKKMPSVHKPIRKGSIYANELLTEKPLTDTEPELHPDNHVVKAKSPKPVARTPTARHRNALKPGKINDKSDDTLHDAPSIQKVGGPSYEDAASVNEKEKDVNPK”, the “soluble on expression in E. coli” value was “not soluble”. In the case of “MLSMLSKISFTRPQAQELLRRLQAPRHLLQVVLGPRQVGKTTLALQVAQTCGLPYHYASADEPTLKEAPWLETQWTLARRLAQAGEALLVLDEAQKVLGWSETLKRLWDEDTLRGLPLKVVLLGSSPLLLQKGLSESLAGRFEVLHLPHWSFYEMERAFGYTLPEYLYFGGYPGAAPLREEPERFARYIKDALLETTLGRDILLHTRVEKPALLRRVLELGLLYSGQVLSYTKMLGQLQDAGNTVTLAYYLELLEGAGLLGALQKYAAEPIRRRASSPKLLALNTGLITAVLGLSPEEVWEDAALMGRLVETAVGAHLLAHAHQGGFEVYYWRERDQEVDFVLQKGKRLLALEVKSAPSKRTQGLEAFTRTFGAKGLLVGPEGVPLEAFLRDNPLNFL”, the “soluble on expression in E. coli” value is reported as “soluble”. With “MLSSKFPLLVATDLSPTGKVVLEKAFKLAKRYHKPLFILHVSETTLFAPKIIELTQIEANLCKLLEPFYARYPEVKATLLCRQGGIEESIISAIKETQASLLLIGTSGEDNLLREFFLGSHCRKIIRSSTIPVLVVKNEEESDYSKIFIPTDFSPSSQKMANLTLHLFPHAYISLFHVILKPFEQRLGMYGLDKDEILRYHKDIDNQSASEADHFIEKLKLPSGKHRIKLLMETGVFSAKLCLQKVKEAQSDLIALNTTGNISFFSMDILNQSPKDVLIFKTDSE” the “soluble on expression in E. coli” value was “not soluble”. For “MLSSSGHAIRRGITTSAALSNKHAFIVGAARTPIGSFRSSLSSVTAPELASVAIKAALERGAVKPSSIQEVFLGQVCQANAGQAPARQAALGAGLDLSVAVTTVNKVCSSGLKAIILAAQQIQTGHQDFAIGGGMESMSQVPFYVQRGEIPYGGFQVIDGIVKDGLTDAYDKVHMGNCGEKTSKEMGITRKDQDEYAINSYKKSAKAWENGNIGPEVVPVNVKSKKGVTIVDKDEEFTKVNFDKFTSLRTVFQKDGTITAANASTLNDGAAAVIVASQEAVSEQSLKPLARILAYGDAATHPLDFAVAPTLMFPKILERAGVKQSDVAQWEVNEAFSCVPLAFIKKLGVDPSLVNPHGGAVSIGHPIGMSGARLITHLVHTLKSGQIGVAAICNGGGGSSGMVIQKL”, the “soluble on expression in E. coli” value was “not soluble”. In the case of “MLSTEDFDFDLPEELIAQTPLKDRASSRLLVVNKETGDMEDKHFHDILDELQPGDALVMNNTRVLPARLYGEKPETGGHLEVLLLTNTEGDTWETLIKPAKRAKVGTEIQFGDGRLKAVVKEELEHGGRIIEFKYDGIFLEILESLGEMPLPPYIKERLDDPDRYQTVYAEENGSAAAPTAGLHFTKELLEEIKAKGVHLVYLTLHVGLGTFRPVSVDNIEEHHMHSEFYRLTEEAAKQLNEVRQAGGRIVAVGTTSIRTLETIGTKFNGEIQADSGWTDIFITPGYQFKVVEAFSTNFHLPKSTLVMLVSAFAGKDLTLAAYQHAIEEKYRFFSFGDAMFIK”, the “soluble on expression in E. coli” value is reported as “not soluble”. In the case of “MLTCTVDTQFGRLTLREEAGALVSVSWGSAAREDASELLQRASLQVSEYDQGARQQFDLPVRIRGSAFQRAVCDAICAIPFGDTCTYGDIARALGVPAQAVGQACGANPIPIIIPCHRVMGAKGLTGFSGVGGVETKVALLRHEGAAGLLILEHHHHHH”, the “soluble on expression in E. coli” value is reported as “not soluble”. For “MLTLAEKLLLIGLNDETGKVHYQASTALPYGLAGAVLADLMLLGKVELQGKNIVVVDPKPVGQPIFDKALHIINKTPRKRNAKYWVQRLKRDLKTLRQDVLTLLIEQGILKEEKRKILGLFETRTYPAVDGEMEEQVKEKLRVLVLQPTEIEENKELAQERTLVLLSLVNACDLLRQVFDRQEARVVKKQVKHLTKDVPVSKAVKEMVDAINASVVLAITSAAVVTSSSSSSNLEHHHHHH”, the “soluble on expression in E. coli” value was “soluble”. For “MLTREDIFKHVKEKYGTSPDYPWEKYPNYASLRHTSNKKWYGLIMNVLPEKLGLDGHGEIDILNLKCPPEISDRLRNGENILPGYHMDKEHWISIVLERTDPEGEIYNLIEQSFHLTKLEHHHHHH”, the “soluble on expression in E. coli” value was “soluble”. With “MLTVHHLNQSRSQRILWALEELALPYQIVRYQREKTMLAPPALKKVHPLGKSPVIEDHGMVIAESGAILEYLQDTYDSIGRFKPADAQGKQHYRFWLHYAEGSLMPLLLMRLLFTSLGKPPVPLGLRTLGGVIGKGAQKAYLNPQLETHARFIDGHLANHPWFAGEQLSMADIQMSFPLFALLARGGIAHLDHINAWKARVEMRPAWQRAIQQGGPFTIPGG” the “soluble on expression in E. coli” value was “not soluble”. In the case of “MLVEFDNPPLCMKSNKDGSRLVVGFVDGSIRFYDTQQHEEEFQEIWKFQTKSSIRGVDLDEHKKRVYAVTKNRSLCVFDIDTGKRVRCILKCHRSVPTAICTLPPTALKSQQLATADESGEVKTWNLDPEVASENANIRKWQEQDEDINDLKVDVKSNLLATSSDGTLGAYDLRKAKLKMRSELMHSELYSVCGTNRSVYVGGEDGYVEVFNLNEYGNLLERVESGFEMGVNGIVELRSGLLGLTSQGSNRMRLLNVQPSKRLGYAGYHGDEKSDDDGIDAITISTDKSTVFTMISMSCTIKKWDMGPIIDEIPILRAQDAKSKKMRKTEGFFDGLVGPKNDSDSDDDDEPKSKKRRNDEDSDEEIDEEEQEEDDEEEEEDSD”, the “soluble on expression in E. coli” value is reported as “not soluble”. In the case of “MMAQEISNLVKKYNVTWQQTMLRIYDPKETVEFYEKNFGMINIHTYHFNEYNFSLYFLITPPYDEEERKKLPEPNTKESEKYLWNLNTVCLELTYNHNSQEKLSNGNNENDRGFGHIAFNCNDVIEQCDNLFKKNVKFHKLPHETKMKTIGFALDPNNYWIEIVKRSNQVKWKNYKNITNFSQTMIRVKNPEKSLYFYIHILGMKLIHVKHCSDFSLYFLKSNYACAENNKEMIEDQSNKNTNEIYDFNSLKNSYQTDEDYENFKQSWEPVLELTHNHGTEDDDNFSYHNGNTEPRGFGHIGFLVNDLENYCKELETLNVTFKKKVTEGLMKNIAFIYDPDNYVIELIQRDTSFIAK”, the “soluble on expression in E. coli” value is reported as “not soluble”. For “MMEDDGQPRTLYVGNLSRDVTEVLILQLFSQIGPCKSCKMITEHTSNDPYCFVEFYEHRDAAAALAAMNGRKILGKEVKVNWATTPSSQK”, the “soluble on expression in E. coli” value was “soluble”. For “MMINQKNDIPLCAQEFSKLTDPLYIKKICLEKVHDWSRCNEDDVCVNQILSGLTNQLFEVSIKEDTAIEYRITRRHVLFRIYGKDVDALYNPLSEFEVYKTMSKYRIAPLLLNTFDGGRIEEWLYGDPLSIDDLKNKSILVGIANVLGKFHTLSRKRHLPEHWDKTPCVFKMMDRWRLAVSNYKNLDKVTLDINKYIQESHKFLKFIKIYTQIENIANDIVFCHNDLQENNIMNTNKCLRLIDFEYSGYNFLSADIANFFIETTIDYSYNAYPFFIINKKNYISYESRILFVTTYLSKYLDDSTAASDQDIIDQFLEAIEVQALGLHLIWAFWSIIRGYQTKSYNEFDFFLYAKERLKMYDEQKQYLMSKNIIKD”, the “soluble on expression in E. coli” value was “not soluble”. For “MMKAKVIDAVSFSYILRTVGDFLSEANFIVTKEGIRVSGIDPSRVVFLDIFLPSSYFEGFEVSQEKEIIGFKLEDVNDILKRVLKDDTLILSSNESKLTLTFDGEFTRSFELPLIQVESTSPPSVNLEFPFKAQLLTITFADIIDELSDLGEVLNIHSKENKLYFEVIGDLSTAKVELSTDNGTLLEASGADVSSSYGMEYVANTTKMRRASDSMELYFGSQIPLKLRFKLPQEGYGDFYIAPRAD”, the “soluble on expression in E. coli” value was “soluble”. In the case of “MMKFDWNNPYPSTRIPVFARNVVATSHPLAAQAGLRILALGGNAADAAVASAATLALVEPASNGLGSDCFALVWDGARLHGLNASGTAPAAWSPGYFQRKHQGAIPLRGWDSVTIPGCVAGWASLHDKLGSLPFADVLAPAIEYAERGFAVPPTVQRRWADQVDPLRSLPGFAEHFLPHGRAPEVGEHFVLAGAAATLRRIAASGGRDFYEGETAQKLVAHAQAHEAALTLGDLRDYAPQWVEPISQAYRGHALHQLPPNGQGLAALIALGIVEHFDLASRPAEHPDTQHILIEAMKLAFADVHAHVADAAHIRIRVEQLLDPAYLAERARLIDLRRARVYNAAQAPQGGTVYLACADRNGMMVSFTQSNYMGFGSGIVVPGTGISLQNRGCCFSMDPDHPNVVGGGKRPFHTGIPAFLTQDGAPLMSFGIMGGNMQPQGHLQALVRMLDYRQQPQAACDAPRWKWNRGLSVDIEAAMPAQVTDALRARGHIVEVAAPADKDFGSGQFIWRLGDPAVDGYVAASDSRRDGLAAGFLEHHHHHH”, the “soluble on expression in E. coli” value is reported as “not soluble”. With “MMKPPSAIMETALYADDLDAAEAFYRDVFGLEMVLKLPGQLVFFKCGRQMLLLFDPQESSRADANNPIPRHGAVGQGHFCFYADDKAEVDEWKTRFEALEIPVEHYHRWPNGSYSVYIRDPAGNSVEVGEGKLWGFE” the “soluble on expression in E. coli” value was “not soluble”. With “MMKRALTGIQASGKQHLGNYLGVMQSLIELQEQCQLFVFVADLHSITVDFQPQALKQNNFDLVRTLLAVGLDPQKACLFLQSDLLEHSMMGYLMMVQSNLGELQRMTQFKAKKAEQTRNPNGTLNIPTGLLTYPALMAGDILLYQPDIVPVGNDQKQHLELTRDLAQRIQKKFKLKLRLPQFVQNKDTNRIMDLFDPTKKMSKSSKNQNGVIYLDDPKEVVVKKIRQATTDSFNKIRFAPKTQPGVTNMLTILKALLKEPVNQSLTNQLGNDLEAYFSTKSYLDLKNALTEATVNLLVNIQRKREQISREQVFNCLQAGKNQAQATARTTLALFYDGFGLGSQNIK” the “soluble on expression in E. coli” value was “soluble”. For “MMNASTKFSDNYDVKEELGKGAFSVVRRCVHKTTGLEFAAKIINTKKLSARDFQKLEREARICRKLQHPNIVRLHDSIQEESFHYLVFDLVTGGELFEDIVAREFYSEADASHCIQQILESIAYCHSNGIVHRDLKPENLLLASKAKGAAVKLADFGLAIEVNDSEAWHGFAGTPGYLSPEVLKKDPYSKPVDIWACGVILYILLVGYPPFWDEDQHRLYAQIKAGAYDYPSPEWDTVTPEAKSLIDSMLTVNPKKRITADQALKVPWICNRERVASAIHRQDTVDCLKKFNARRKLKAAISAVKMVTRMSGVLRTSDSTGSVASNGSTTHDASQVAGTSSQPTSPAAEVYPNVLLFNPQKFPRNCVHPFTTHPYYSPKESSKKKLFFTLLFEVCPHTSRSHILLRDNTKNIYHPYHCFTNKMSNYERAAPSSHGSSTTKKIANAIADLVIRRSSPSIRRKTEADVHNSNRNRKVSAPANLQHALVPVIDVVVATGALASSSVDNLSASTSSDLGRNLLNKKEQGPPSTIKESSESSQTIDDNDSEKGGGQLKHENTVVRADGATGIVSSSNSSTASKSSSTNLSAQKQDIVRVTQTLLDAISCKDFETYTRLCDTSMTCFEPEALGNLIEGIEFHRFYFDGNRKNQVHTTMLNPNVHIIGEDAACVAYVKLTQFLDRNGEAHTRQSQESRVWSKKQGRWVCVHVHRSTQPSTNTTVSEF”, the “soluble on expression in E. coli” value was “not soluble”. For “MMRNEHVAKGITGVSWYDFKQKLKYKAECGNMEFIEIGRFDPSFEIWSRCGWIDYNLKLSDRIFRCENCGLVIDRDLNTAINISNMELKKVGKGIPEFTPVDIATAADPTIRTGTASSRSMNREPPKPKRLEHHHHHH”, the “soluble on expression in E. coli” value was “not soluble”.
